Experimental data reported in patent US20050119454A1.

Biological target: human long isoform dopamine D2 (D2DA) receptor (human), P14416
Assay: cell-based or functional assay

Chain of human long isoform dopamine D2 (D2DA) receptor (human), P14416 (P14416 whole entry, canonical isoform): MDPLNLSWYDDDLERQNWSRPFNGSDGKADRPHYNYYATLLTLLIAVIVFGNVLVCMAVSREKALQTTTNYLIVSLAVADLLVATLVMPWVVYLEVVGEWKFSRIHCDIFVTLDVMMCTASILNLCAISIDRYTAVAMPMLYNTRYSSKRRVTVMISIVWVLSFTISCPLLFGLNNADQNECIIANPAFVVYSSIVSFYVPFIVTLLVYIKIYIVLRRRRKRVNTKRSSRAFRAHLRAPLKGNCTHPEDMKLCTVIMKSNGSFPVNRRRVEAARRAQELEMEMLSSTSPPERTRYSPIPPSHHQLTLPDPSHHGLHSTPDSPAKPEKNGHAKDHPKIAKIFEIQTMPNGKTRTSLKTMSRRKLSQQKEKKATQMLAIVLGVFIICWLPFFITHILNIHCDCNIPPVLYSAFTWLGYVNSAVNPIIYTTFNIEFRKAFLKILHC

EAR response to dopamine, LtK system, paired one-tailed t-test [t statistic]	dopamine-induced EAR, CHO cells, paired one-tailed t-test [t statistic]	Binder	other results
69.8	1.28	H-ERNRKPYRPKNKYLL-OH	–
–	–	H-THQAFHYCNKQCLVI-OH (cysteine pairing not given here)	potentiation of the dopamine response (EAR), CHO system, paired one-tailed t-test: 1.31 t statistic; potentiation of the dopamine response (EAR), LtK system, paired one-tailed t-test: 0.62 t statistic
25.5	1.54	ERNRKPLRPKNKYLI […]	–
–	–	H-SHQRWEYKGVNCIVY-OH	potentiation of the dopamine-induced increment in total milli-pH units (EAR), CHO system, paired one-tailed t-test: 28.1 t statistic; potentiation of the dopamine-induced increment in total milli-pH units (EAR), LtK system, paired one-tailed t-test: 13.3 t statistic
